Article doi:10.1101/870071 (bioRxiv, 2019)

B1: His-GIV-CT (C-terminus of GIV/Girdin), wild type (domain or fragment)
chain: SETLESRHHKIKTGSPGSEVVTLQQFLEESNKLTSVQIKSSSQENLLDEVMKSLSVSSDFLGKDKPVSCGLARSVSGKTPGDFYDRRTTKPEFLRPGPRKTEDTYFISSAGKPTPGTQGKIKLVKESSLSRQSKDSNPYATLPRASSVISTAEGTTRRTSIHDFLTKDSRLPISVDSPPAAADSNTTAASNVDKVQESRNSKSRSREQQSS
B2: His-Bem1p (natural protein, yeast, UniProt P29366 1-551, looked up)
chain: MLKNFKLSKRDSNGSKGRITSADISTPSHDNGSVIKHIKTVPVRYLSSSSTPVKSQRDSSPKNRHNSKDITSPEKVIKAKYSYQAQTSKELSFMEGEFFYVSGDEKDWYKASNPSTGKEGVVPKTYFEVFDRTKPSSVNGSNSSSRKVTNDSLNMGSLYAIVLYDFKAEKADELTTYVGENLFICAHHNCEWFIAKPIGRLGGPGLVPVGFVSIIDIATGYATGNDVIEDIKSVNLPTVQEWKSNIARYKASNISLGSVEQQQQQSITKPQNKSAKLVDGELLVKASVESFGLEDEKYWFLVCCELSNGKTRQLKRYYQDFYDLQVQLLDAFPAEAGKLRDAGGQWSKRIMPYIPGPVPYVTNSITKKRKEDLNIYVADLVNLPDYISRSEMVHSLFVVLNNGFDREFERDENQNNIKTLQENDTATFATASQTSNFASTNQDNTLTGEDLKLNKKLSDLSLSGSKQAPAQSTSGLKTTKIKFYYKDDIFALMLKGDTTYKELRSKIAPRIDTDNFKLQTKLFDGSGEEIKTDSQVSNIIQAKLKISVHDI

Columns and labels:
GST-hExo70 (human Exo70) = GST-hExo70 (human Exo70) (human, UniProt Q9UPT5 1-735); test: pull-down
GST-Exo70p (yeast Exo70) = GST-Exo70p (yeast Exo70) (yeast, UniProt P19658 1-623); test: pull-down
Sequence of GST-Exo70p (yeast Exo70) (P19658 whole entry): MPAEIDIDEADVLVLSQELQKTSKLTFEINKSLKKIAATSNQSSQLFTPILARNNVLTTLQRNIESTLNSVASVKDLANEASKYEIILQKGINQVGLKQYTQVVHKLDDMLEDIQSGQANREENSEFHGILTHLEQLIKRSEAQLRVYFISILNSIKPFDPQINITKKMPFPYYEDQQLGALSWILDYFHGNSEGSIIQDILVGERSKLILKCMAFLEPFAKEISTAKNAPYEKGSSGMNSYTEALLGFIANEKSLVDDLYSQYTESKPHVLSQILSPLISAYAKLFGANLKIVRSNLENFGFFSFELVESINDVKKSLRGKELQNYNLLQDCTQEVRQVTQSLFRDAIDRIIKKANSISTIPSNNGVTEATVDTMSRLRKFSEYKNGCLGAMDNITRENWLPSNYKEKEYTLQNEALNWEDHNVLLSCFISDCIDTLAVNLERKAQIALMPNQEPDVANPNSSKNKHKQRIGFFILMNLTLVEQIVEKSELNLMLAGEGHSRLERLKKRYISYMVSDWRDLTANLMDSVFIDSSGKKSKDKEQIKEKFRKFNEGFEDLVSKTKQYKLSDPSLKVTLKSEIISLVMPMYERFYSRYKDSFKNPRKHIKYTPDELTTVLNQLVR

Sequence of GST-hExo70 (human Exo70) (Q9UPT5 whole entry): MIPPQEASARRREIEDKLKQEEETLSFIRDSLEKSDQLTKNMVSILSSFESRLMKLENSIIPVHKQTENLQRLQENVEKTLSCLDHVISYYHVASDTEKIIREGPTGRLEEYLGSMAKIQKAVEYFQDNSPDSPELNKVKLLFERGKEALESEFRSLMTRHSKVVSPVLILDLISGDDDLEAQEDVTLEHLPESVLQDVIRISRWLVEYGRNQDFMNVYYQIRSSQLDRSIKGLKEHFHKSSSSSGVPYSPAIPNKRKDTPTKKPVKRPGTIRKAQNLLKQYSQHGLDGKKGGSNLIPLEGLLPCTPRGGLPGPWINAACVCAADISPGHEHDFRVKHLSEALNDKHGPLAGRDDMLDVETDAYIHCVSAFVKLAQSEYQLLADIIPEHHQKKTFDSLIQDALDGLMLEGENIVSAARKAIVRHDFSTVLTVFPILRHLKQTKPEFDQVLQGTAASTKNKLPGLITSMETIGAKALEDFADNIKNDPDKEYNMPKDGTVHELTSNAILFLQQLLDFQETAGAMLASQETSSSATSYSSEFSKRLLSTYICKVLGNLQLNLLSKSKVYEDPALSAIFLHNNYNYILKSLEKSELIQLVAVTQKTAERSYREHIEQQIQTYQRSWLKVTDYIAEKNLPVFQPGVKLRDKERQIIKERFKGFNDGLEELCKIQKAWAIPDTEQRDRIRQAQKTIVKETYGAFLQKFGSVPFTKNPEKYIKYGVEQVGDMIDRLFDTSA

Row | Binder | fold binding against yeast Exo70p (GST-hExo70 (human Exo70)) | fold binding against human Exo70 (GST-Exo70p (yeast Exo70))
1 | B1 | 4 fold | –
2 | B2 | – | 2 fold
